Laboratory results from the RNAGym collection of RNA variant scans (doi:10.1093/molbev/msab373).

B1: Azoarcus group I ribozyme (parent)
chain: GUGCCUUGCGCCGGGAAACCACGCAAGGGAUGGUGUCAAAUUCGGCGAAACCUAAGCGCCCGCCCGGGCGUAUGGCAACGCCGAGCCAAGCUUCGGCGCCUGCGCCGAUGAAGGUGUAGAGACUAGACGGCACCCACCUAAGGCAAACGCUAUGGUGAAGGCAUAGUCCAGGGAGUGGCGAAAGUCACACAAACCGG

Variants of: B1
Assay: reverse-splicing fitness (ratio to wild type); higher = more active; in vitro selection; Mg2+ level not given
In short: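 An in vitro group I ribozyme library with randomized positions was T7-transcribed and gel-purified. In triplicate, 10 pmol RNA in EPPS pH 7.5 was reacted with 50 pmoles of a 30-nt RNA substrate for 1 h at 37 °C across several added MgCl2 levels (1–48 mM), then stopped with EDTA. Products were reverse transcribed from a substrate-complementary primer, PCR-amplified and sequenced (HiSeq 4000). Fitness is a variant's read proportion after selection over that before, normalised to wild type.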
GUGCCUUGCGCCGGGAAACCACGCAAGGGAUGGUGUCAAAUUCGGCGAAACCUAAGCGCCCGCCCGGGCGUAUGGCAACGCGGAGCCAAGCUUCGGCGCCUGCGCCGAUGGAGGUGUAGAGACUAGACGGCACCCACCUAAGGCUAACGUUAUGGUGAAGGCAUAGUCAAGGGAGGGGCGAAAGUCACACAAACCGG [C82G A111G A145U C150U C169A U176G] gave a reverse-splicing fitness of 0.00584.
Work on GUGCCUUGCGCCGGGAAACCACGCAAGGGAUGGUGUCAAAUUCGGCGAAACCUAAGCGCCCGCCCGGGCGUAUGGCAACGCGGAGCCAAGCUUCGGCGCCUGCGCCGAUGGAGGUGUAGAGACUAGACGGCACCCACCUAAGGCUAACGUUAUGGUGAAGGCAUAGUCGAGGGAGUGGCGAAAGUCACACAAACCGG [C82G A111G A145U C150U C169G] yielded a reverse-splicing fitness of 0.00988.
With GUGCCUUGCGCCGGGAAACCACGCAAGGGAUGGUGUCAAAUUCGGCGAAACCUAAGCGCCCGCCCGGGCGUAUGGCAACGCGGAGCCAAGCUUCGGCGCCUGCGCCGAUGGAGGUGUAGAGACUAGACGGCACCCACCUAAGGCUAACGUUAUGGUGAAGGCAUAGUCGAGGGAGAGGCGAAAGUCACACAAACCGG [C82G A111G A145U C150U C169G U176A] the reverse-splicing fitness was 0.0142.
Work on GUGCCUUGCGCCGGGAAACCACGCAAGGGAUGGUGUCAAAUUCGGCGAAACCUAAGCGCCCGCCCGGGCGUAUGGCAACGCGGAGCCAAGCUUCGGCGCCUGCGCCGAUGGAGGUGUAGAGACUAGACGGCACCCACCUAAGGCUAACGUUAUGGUGAAGGCAUAGUCGAGGGAGCGGCGAAAGUCACACAAACCGG [C82G A111G A145U C150U C169G U176C] yielded a reverse-splicing fitness of 0.0152.
GUGCCUUGCGCCGGGAAACCACGCAAGGGAUGGUGUCAAAUUCGGCGAAACCUAAGCGCCCGCCCGGGCGUAUGGCAACGCGGAGCCAAGCUUCGGCGCCUGCGCCGAUGGAGGUGUAGAGACUAGACGGCACCCACCUAAGGCUAACGUUAUGGUGAAGGCAUAGUCGAGGGAGGGGCGAAAGUCACACAAACCGG [C82G A111G A145U C150U C169G U176G] showed a reverse-splicing fitness of 0.00611.
In the case of GUGCCUUGCGCCGGGAAACCACGCAAGGGAUGGUGUCAAAUUCGGCGAAACCUAAGCGCCCGCCCGGGCGUAUGGCAACGCGGAGCCAAGCUUCGGCGCCUGCGCCGAUGGAGGUGUAGAGACUAGACGGCACCCACCUAAGGCUAACGUUAUGGUGAAGGCAUAGUCUAGGGAGUGGCGAAAGUCACACAAACCGG [C82G A111G A145U C150U C169U], the reverse-splicing fitness is reported as 0.0113.
Work on GUGCCUUGCGCCGGGAAACCACGCAAGGGAUGGUGUCAAAUUCGGCGAAACCUAAGCGCCCGCCCGGGCGUAUGGCAACGCGGAGCCAAGCUUCGGCGCCUGCGCCGAUGGAGGUGUAGAGACUAGACGGCACCCACCUAAGGCUAACGUUAUGGUGAAGGCAUAGUCUAGGGAGAGGCGAAAGUCACACAAACCGG [C82G A111G A145U C150U C169U U176A] yielded a reverse-splicing fitness of 0.0134.
For GUGCCUUGCGCCGGGAAACCACGCAAGGGAUGGUGUCAAAUUCGGCGAAACCUAAGCGCCCGCCCGGGCGUAUGGCAACGCGGAGCCAAGCUUCGGCGCCUGCGCCGAUGGAGGUGUAGAGACUAGACGGCACCCACCUAAGGCUAACGUUAUGGUGAAGGCAUAGUCUAGGGAGCGGCGAAAGUCACACAAACCGG [C82G A111G A145U C150U C169U U176C], the reverse-splicing fitness was 0.0137.
GUGCCUUGCGCCGGGAAACCACGCAAGGGAUGGUGUCAAAUUCGGCGAAACCUAAGCGCCCGCCCGGGCGUAUGGCAACGCGGAGCCAAGCUUCGGCGCCUGCGCCGAUGGAGGUGUAGAGACUAGACGGCACCCACCUAAGGCUAACGUUAUGGUGAAGGCAUAGUCUAGGGAGGGGCGAAAGUCACACAAACCGG [C82G A111G A145U C150U C169U U176G] gave a reverse-splicing fitness of 0.00549.
GUGCCUUGCGCCGGGAAACCACGCAAGGGAUGGUGUCAAAUUCGGCGAAACCUAAGCGCCCGCCCGGGCGUAUGGCAACGCGGAGCCAAGCUUCGGCGCCUGCGCCGAUGGAGGUGUAGAGACUAGACGGCACCCACCUAAGGCUAACGUUAUGGUGAAGGCAUAGUCCAGGGAGAGGCGAAAGUCACACAAACCGG [C82G A111G A145U C150U U176A] showed a reverse-splicing fitness of 0.154.
GUGCCUUGCGCCGGGAAACCACGCAAGGGAUGGUGUCAAAUUCGGCGAAACCUAAGCGCCCGCCCGGGCGUAUGGCAACGCGGAGCCAAGCUUCGGCGCCUGCGCCGAUGGAGGUGUAGAGACUAGACGGCACCCACCUAAGGCUAACGUUAUGGUGAAGGCAUAGUCCAGGGAGCGGCGAAAGUCACACAAACCGG [C82G A111G A145U C150U U176C] gave a reverse-splicing fitness of 0.165.
With GUGCCUUGCGCCGGGAAACCACGCAAGGGAUGGUGUCAAAUUCGGCGAAACCUAAGCGCCCGCCCGGGCGUAUGGCAACGCGGAGCCAAGCUUCGGCGCCUGCGCCGAUGGAGGUGUAGAGACUAGACGGCACCCACCUAAGGCUAACGUUAUGGUGAAGGCAUAGUCCAGGGAGGGGCGAAAGUCACACAAACCGG [C82G A111G A145U C150U U176G] the reverse-splicing fitness was 0.0614.
For GUGCCUUGCGCCGGGAAACCACGCAAGGGAUGGUGUCAAAUUCGGCGAAACCUAAGCGCCCGCCCGGGCGUAUGGCAACGCGGAGCCAAGCUUCGGCGCCUGCGCCGAUGGAGGUGUAGAGACUAGACGGCACCCACCUAAGGCUAACGCUAUGGUGAAGGCAUAGUCAAGGGAGUGGCGAAAGUCACACAAACCGG [C82G A111G A145U C169A], the reverse-splicing fitness was 0.00634.
In the case of GUGCCUUGCGCCGGGAAACCACGCAAGGGAUGGUGUCAAAUUCGGCGAAACCUAAGCGCCCGCCCGGGCGUAUGGCAACGCGGAGCCAAGCUUCGGCGCCUGCGCCGAUGGAGGUGUAGAGACUAGACGGCACCCACCUAAGGCUAACGCUAUGGUGAAGGCAUAGUCAAGGGAGAGGCGAAAGUCACACAAACCGG [C82G A111G A145U C169A U176A], the reverse-splicing fitness is reported as 0.0133.
Work on GUGCCUUGCGCCGGGAAACCACGCAAGGGAUGGUGUCAAAUUCGGCGAAACCUAAGCGCCCGCCCGGGCGUAUGGCAACGCGGAGCCAAGCUUCGGCGCCUGCGCCGAUGGAGGUGUAGAGACUAGACGGCACCCACCUAAGGCUAACGCUAUGGUGAAGGCAUAGUCAAGGGAGCGGCGAAAGUCACACAAACCGG [C82G A111G A145U C169A U176C] yielded a reverse-splicing fitness of 0.0135.
